{
  "source": "paper doi:10.1101/495820",
  "biological_target": "T1, SmcH-CC100 (Bacillus subtilis, UniProt P51834 400-774)",
  "T1 sequence": "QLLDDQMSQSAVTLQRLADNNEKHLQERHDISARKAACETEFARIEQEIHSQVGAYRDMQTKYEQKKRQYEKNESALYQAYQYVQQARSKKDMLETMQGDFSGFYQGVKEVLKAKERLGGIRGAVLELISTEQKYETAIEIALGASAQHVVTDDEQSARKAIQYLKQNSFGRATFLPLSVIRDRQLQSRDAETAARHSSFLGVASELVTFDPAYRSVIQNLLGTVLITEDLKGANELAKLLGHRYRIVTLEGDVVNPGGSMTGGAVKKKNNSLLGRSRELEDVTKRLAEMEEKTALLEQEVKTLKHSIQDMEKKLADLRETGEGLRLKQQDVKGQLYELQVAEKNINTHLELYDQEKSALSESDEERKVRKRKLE",
  "assay": "fluorescence anisotropy",
  "data": [
    {"binder": "40 bp random-sequence dsDNA (dsDNA) DNA 1: TTAGTTGTTCGTAGTGCTCGTCTGGCTCTGGATTACCCGC DNA 2: GCGGGTAATCCAGAGCCAGACGAGCACTACGAACAACTAA", "values": [
      {"measurement": "binding result", "result": "binds"}
    ]}
  ]
}
